Assay results: US20110165605A1

T1: α-lactalbumin (Sigma Co.)
T1 sequence (P00711 20-142, species assumed, looked up): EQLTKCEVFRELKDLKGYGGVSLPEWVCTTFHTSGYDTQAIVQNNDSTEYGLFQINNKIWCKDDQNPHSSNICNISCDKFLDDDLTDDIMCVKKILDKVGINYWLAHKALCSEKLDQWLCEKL


What was measured:
[1] = molecular target: T1, α-lactalbumin (Sigma Co.)
[2] = molecular target: casein (Wako Pure Chemical Industries, Ltd.)
[3] = molecular target: separated soybean protein (Fuji Pro F, FUJI OIL CO., LTD.)
[4] = molecular target: β-lactoglobulin (Sigma Co.)
[5] = molecular target: wheat gluten (Viten, ROQUETTE Co.)
[6] = molecular target: casein (Wako Pure Chemical Industries, Ltd.); experiment: cell-based or functional assay
[7] = molecular target: wheat gluten (Viten, ROQUETTE Co.); experiment: cell-based or functional assay
[8] = molecular target: separated soybean protein (Fuji Pro F, FUJI OIL CO., LTD.); experiment: cell-based or functional assay

| Ratio (Y82S/Wild-type) [6] | Ratio (Y82S/Wild-type) [7] | Ratio (Y82S/Wild-type) [8] | Binder | Relative activity (%) [1] [%] | Relative activity (%) [2] [%] | Relative activity (%) [3] [%] | Relative activity (%) [4] [%] | Relative activity (%) [5] [%] | Ratio (Y82S/Wild-type) [1] | Ratio (Y82S/Wild-type) [4] |
| --- | --- | --- | --- | --- | --- | --- | --- | --- | --- | --- |
| – | – | – | mature form of wild-type protein-glutaminase derived from the Chryseobacterium proteolyticum 9670 strain (protein) LASVIPDVATLNSLFNQIKNQSCGTSTASSPCITFRYPVDGCYARAHKMRQILMNNGYDCEKQFVYGNLKASTGTCCVAWSYHVAILVSYKNASGVTEKRIIDPSLFSSGPVTDTAWRNACVNTSCGSASVSSYANTAGNVYYRSPSNSYLYDNNLINTNCVLTKFSLLSGCSPSPAPDVSSCGF | 100 | 1020 | 127 | 61 | 2620 | – | – |
| 0.7 | 1.6 | 4.2 | mature form of the protein-glutaminase mutant Tyr82Ser (protein) LASVIPDVATLNSLFNQIKNQSCGTSTASSPCITFRYPVDGCYARAHKMRQILMNNGYDCEKQFVYGNLKASTGTCCVAWSSHVAILVSYKNASGVTEKRIIDPSLFSSGPVTDTAWRNACVNTSCGSASVSSYANTAGNVYYRSPSNSYLYDNNLINTNCVLTKFSLLSGCSPSPAPDVSSCGF | 100 | 701 | 531 | 309 | 4270 | 1 | 5 |
